PMC7730189
pKd: −log10 of the molar value.

Legend:
[1] = system: RcuCCA (CCA-adding enzyme, tRNA nucleotidyltransferase) (Romanomermis culicivorax); assay: EMSA; details: 6 mM Mg2+; HEPES/KOH pH 7.6, 30 mM KCl, 6 mM MgCl2, 20 C, 10 min; 0.5 pmol tRNA, 0-4 uM enzyme; 5% native PAGE; n = 3
[2] = system: Chimera E (HsaCCA with RcuCCA beta-turn region) (Homo sapiens / Romanomermis culicivorax chimera); assay: EMSA; details: 6 mM Mg2+; HEPES/KOH pH 7.6, 30 mM KCl, 6 mM MgCl2, 20 C, 10 min; 0.5 pmol tRNA, 0-4 uM enzyme; 5% native PAGE; n = 3

“GCGGAUUUAGCUCAGUUGGGAGAGCGCCAGACUGAAGAUCUGGAGGUCCUGUGUUCGAUCCACAGAAUUCGCA [tRNAPhe (lacking CCA)]” showed a pKd [1] of 5.89.

mt-tRNAIle (armless, lacking CCA) was tested, and the pKd [1] was 5.85 and the pKd [2] was 5.74.
